Several values for one entry are separate records, joined by “and”; a condition that tells them apart may be missing. Identical values can stand only once.
Legend:
[1] = biological target: the molecule itself; assay: small-angle neutron scattering (SANS); 5.3 mg/mL Cyt c′ in D2O, 20 mM phosphate buffer, pD 9.6; KWS-1 beam line; Rg and curve compared with those of the crystal dimer; MW ratio from I(0)/C against the pD 1.7 sample; dimer to monomers
[2] = biological target: the molecule itself; assay: small-angle neutron scattering (SANS); 5.5 mg/mL Cyt c′ in D2O, 20 mM phosphate buffer, pD 6.4; KWS-1 beam line; Rg and curve compared with those of the crystal dimer; MW ratio from I(0)/C against the pD 1.7 sample; dimer to monomers

B1: Cytochrome c′ from Alcaligenes xylosoxidans NCIMB 11015 (natural protein, UniProt P00138 1-127, looked up)
chain: QFAKPEDAVKYRQSALTLMASHFGRMTPVVKGQAPYDAAQIKANVEVLKTLSALPWAAFGPGTEGGDARPEIWSDAASFKQKQQAFQDNIVKLSAAADAGDLDKLRAAFGDVGASCKACHDAYRKKK
modifications: heme prosthetic group embedded in the C-terminal region
notes: Cytochrome c′ (c-type cytochrome, four-α-helix bundle) of Alcaligenes xylosoxidans NCIMB 11015; helices A(Ala3-Lys31), B(Asp37-Phe59), C(Ala76-Asp98), D(Asp103-Arg124); His120 axial ligand; crystal structures PDB 4WGZ and 4WGY are of the same protein; also called Cyt c′; Cyt c'
[1]
  stoichiometry N: 1.9 and 1.8
[2]
  stoichiometry N: 2.1 and 2

— article PMC8774185, “Open-Bundle Structure as the Unfolding Intermediate of Cytochrome c′ Revealed by Small Angle Neutron Scattering” (Biomolecules, 2022)
